From USRE50618E1, “Anionic-core composition for delivery of therapeutic agents, and methods of making and using the same” (PharmaIN Corporation, priority 2009, dated 2025)
“And” between values parts separate entries of the source, which are not always exact repeats. Identical values can stand only once. Like-named read-outs stand apart in the source and are kept apart here.

Tests used:
[1] = cited from earlier work; for isoelectric point (pI): stated in the description; for Isoelectric Point: peptide or protein load molecule, Table 7
[2] = rat, in vivo, 10 mg/kg
adenoviral infection = settings: cited from earlier work
bacteria = settings: cited from earlier work
[3] = Lysostaphin PK study (serum lysostaphin activity assay); format: in vivo; settings: Sprague Dawley rats, i.v. bolus 12 mg lysostaphin/Kg; lysostaphin 50% of carrier weight
Protocol: Four carriers were selected for PK study. CSPEG106G, HPPEG105G, 20PLPEG1030-DTPA, and 20PLPEG1030-DTPA-SO were loaded with Lysostaphin equivalent to 50% of the carrier weight. These formulations were obtained by dissolving together an appropriate amount of carrier and Lysostaphin in water and incubating for two hours followed by lyophilization. Each lyophilized formulation (including unformulated lysostaphin alone) was dissolved in saline and administered to Sprague Dawley rats (n=4) by slow (at least 1 min) i.v. bolus (12 mg lysostaphin/Kg) via the lateral tail vein. Blood samples were taken from the orbital sinus at 5 m, 15 m, 30 m, 60 m, 120 m, 4 h, 6 h, 24 h, 32 h (30 h), and 48 h and placed in tubes containing Protease Inhibitors (AEBSF, Aprotinin, E-64, EDTA, and Leupeptin). Sera were obtained by centrifugation at 13,000 rpm. All the sera were stored at −80° C. until used in the assay. 100 of serum was used in this assay for each time point. Lysostaphin's activity was measured by activity assay as follow: Stock buffer (10×) was prepared to contain 1M MOPS/10% Tween (by wt.)/5 mM EDTA/pH 7.3. The final reaction mixtures (2000) in black 96-well plate were prepared to contain 5 μg substrate, 100 mM MOPS, 1% Tween20, 0.5 mM EDTA, pH 7.3, and 100 of serum samples. The samples were added last and after addition the wells were mixed and bubbles in the solution was removed using pipette tip wet with ethanol. Fluorescence (Ex485 nm/Em535 nm) increase was monitored for two hours using Chameleon 96-well microplate fluorometer (Bioscan) every 7.5 minutes for 2 hours. The substrate gave fluorescence product when lysostaphin proteolytically cleaved it.

Molecule: Nerve growth factor: growth factor listed as basic protein load molecule
- isoelectric point (pI) [1]: 8.5-9.5

Molecule: Fibroblast growth factor
- isoelectric point (pI) [1]: 8.0-9.0 and 9.6

Molecule: Heparin-binding EGF: EGF-related growth factor that signals through the EGF receptor and binds heparin
- Isoelectric Point [1]: 8.56

Molecule: platelet derived growth factor
- isoelectric point (pI) [1]: 8.5-10

Molecule: H-RRRPRPPYLPRPRPPPFFPPRLPPRIPPGFPPRFPPRFP-OH [PR39]
- Isoelectric Point [1]: 9.96
- level at 24 h [2]: 370 ng/mL
- level at 48 h [2]: 30 ng/mL

Molecule: ACYCRIPACI-AGERRYGTCI-YQGRLWAFCC [HNP-1]
- reduction of adenoviral infection (adenoviral infection): more than 95%

Molecule: Vascular endothelial growth factor
- isoelectric point (pI) [1]: 8.0-9.5

Molecule: (klaklak)2: synthetic 14 amino acid D-peptide, programmed cell death-inducing sequence (KLAKLAKKLAKLAK; D-amino acids, C-terminal amide)
- concentration that kills bacteria relative to that required to kill eukaryotic cells (bacteria): 1%

Molecule: erythropoietin without sialic acid: erythropoietin without sialic acid, listed as load molecule
- isoelectric point (pI) [1]: 8.5

Molecule: GLP1: peptide load molecule with isoelectric point 5.4 used in Table 7
- Isoelectric Point [1]: 5.4

Molecule: Lysostaphin: 25-kDa peptidase produced by Staphylococcus simulans, cleaves glycine-glycine bond of Staphylococcus aureus cell wall cross-bridge
- Isoelectric Point [1]: 9.56
- isoelectric point (pI) [1]: 9-10
- isoelectric point (pI) ([1]; listed as lysostaphin): 9.56
- AUC0 to last [3]: 64.2 hr (μg/ml)
- AUC0 to ∞ [3]: 67 hr (μg/ml)
- C0 [3]: 301 µg/mL
- Mean residence time [3]: 0.984 h
- Terminal t1/2 [3]: 1.53 h

B1: Interferon gamma: type II interferon with anti-viral and anti-scarring activity (protein, UniProt P01579 24-161, looked up)
Interferon gamma: QDPYVKEAENLKKYFNAGHSDVADNGTLFLGILKNWKEESDRKIMQSQIVSFYFKLFKNFKDDQSIQKSVETIKEDMNVKFFNSNKKKRDDFEKLTNYSVTDLNVQRKAIHELIQVMAELSPAAKTGKRKRSQMLFRG
- isoelectric point (pI) [1]: 8.5-9.5
